Test results reported in US20220195067A1 (LAMKAP BIO BETA, published 2022).
Substitutions are numbered along the chain they refer to. One block for each binder: values may come before it.

What was measured:
[1] = biological target: T1, his-tagged recombinant huCEACAM3 (R&D Systems, #9868-CM) (human, UniProt P40198 35-155); assay: BLI (Octet), his-tagged CEACAM3 on HIS1K biosensor, antibody as analyte
T1 construct: Bought reagent; also called rec. hCEACAM3; recombinant soluble human CEACAM3; not shown: His tag
T1 sequence (looked up): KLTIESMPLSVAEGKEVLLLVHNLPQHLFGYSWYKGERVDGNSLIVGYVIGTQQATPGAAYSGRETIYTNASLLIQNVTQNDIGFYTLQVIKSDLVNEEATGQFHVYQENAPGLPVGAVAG
Experimental: The affinity of the anti-human CEACAM5 arms of the CD47×CEACAM5 bispecific antibodies of the invention for recombinant soluble human CEACAM3 was determined using the Bio-Layer Interferometry (BLI) technology and an OctetRED96 instrument. HIS1K biosensors (Sartorius), loaded with an anti-His tag antibody, were used to capture his-tagged recombinant huCEACAM3 (R&D Systems, #9868-CM). The measurement was performed at 30° C. After hydration, pre-conditioning and a baseline step in Kinetic buffer (PBS, 0.002% Tween 20, 0.01% BSA, Kathon; Sartorius), biosensors were loaded for 5 min with the recombinant huCEACAM3 at 5 μg/mL in Kinetic buffer. Then, biosensors were dipped into a serial dilution of k bodies, starting at 667 nM with a 2× dilution factor. The association and dissociation phases were monitored for 60 seconds and 120 seconds respectively. Biosensors were regenerated using 10 mM glycine pH 1.7. A standard acquisition rate was applied (5.0 Hz, averaging by 20). Curves were processed with a double reference subtraction, a Y alignment on the baseline and an interstep correction. The affinity was measured applying a 1:1 global fitting model on the full association step and the first 5 seconds of the dissociation step.

[2] = biological target: T2, recombinant human CEACAM5 Extra Cellular Domain (ECD) soluble protein (human, UniProt P06731 35-685, biotinylated in the competition ELISA of Example 4); assay: BLI (Octet), antibody on Protein A biosensor, soluble CEACAM5 ECD as analyte
T2 construct: extracellular domain; also called rec. hCEACAM5; recombinant soluble human CEACAM5; not shown: C-terminal Avitag and hexa-histidine tag, or a human Fc or a mouse Fc region; which construct stood in each assay is not
T2 sequence (looked up): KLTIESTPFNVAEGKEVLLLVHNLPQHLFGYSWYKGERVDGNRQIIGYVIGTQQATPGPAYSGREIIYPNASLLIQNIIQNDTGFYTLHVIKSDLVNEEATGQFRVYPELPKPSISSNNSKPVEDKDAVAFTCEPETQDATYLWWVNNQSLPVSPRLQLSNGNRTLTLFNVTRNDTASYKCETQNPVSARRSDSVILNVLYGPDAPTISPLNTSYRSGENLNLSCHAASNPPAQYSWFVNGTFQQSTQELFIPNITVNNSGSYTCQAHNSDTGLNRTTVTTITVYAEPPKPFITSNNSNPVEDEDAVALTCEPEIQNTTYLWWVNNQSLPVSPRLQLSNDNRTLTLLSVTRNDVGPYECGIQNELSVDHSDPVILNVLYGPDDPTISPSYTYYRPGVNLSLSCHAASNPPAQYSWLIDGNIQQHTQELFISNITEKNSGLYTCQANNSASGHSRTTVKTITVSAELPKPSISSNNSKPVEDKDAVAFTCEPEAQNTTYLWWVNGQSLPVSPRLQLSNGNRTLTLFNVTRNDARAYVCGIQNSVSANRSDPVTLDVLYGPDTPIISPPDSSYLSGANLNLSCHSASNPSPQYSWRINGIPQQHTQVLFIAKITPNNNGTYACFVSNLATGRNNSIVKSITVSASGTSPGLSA
Experimental: The affinity of the anti-human CEACAM5 arm of the CD47×CEACAM5 bispecific antibodies of the invention for recombinant soluble human CEACAM5 was determined using the Bio-Layer Interferometry (BLI) technology. An OctetRED96 instrument and Protein A biosensors were used (Sartorius). The measurement was performed at 30° C. After hydration, pre-conditioning and a baseline step in Kinetic buffer (PBS, 0.002% Tween 20, 0.01% BSA, Kathon; Sartorius), biosensors were loaded for 5 min with the κλ body at 0.5 μg/mL in Kinetic buffer. Then, biosensors were dipped into a serial dilution of recombinant human CEACAM5 Extra Cellular Domain (ECD) soluble protein (produced in house), starting at 50 nM with a 2× dilution factor. The association and dissociation phases were monitored for 600 seconds each. Biosensors were regenerated using 10 mM glycine pH 1.7. A standard acquisition rate was applied (5.0 Hz, averaging by 20). Curves were processed with a reference well subtraction, a Y alignment on the baseline, without interstep correction. The affinity was measured applying a 1:1 global fitting model on the full association and dissociation steps. The binding affinity (KD) of the bispecific antibodies of the invention to recombinant human CD47 was determined by the same experimental procedure.

[3] = biological target: T3, human CEACAM5 on CEACAM5-expressing cancer cell lines (human, UniProt P06731 35-685); assay: flow cytometry on SK-CO-1 cells (carry CEACAM5 and CD47), PE anti-human IgG Fc
T3 construct: whole, on cells; also called CEACAM5 on SK-CO-1, MKN-45, HPAF-II, SNU-C1, Ls174T, LoVo cells
T3 sequence (looked up): T2 sequence (looked up)
Experimental: The binding of CD47×CEACAM5 bispecific antibodies was tested on CEACAM5-expressing human gastric adenocarcinoma cells (e.g. MKN-45), on CEACAM5-expressing human colorectal cancer cells (SK-CO-1, SNU-C1, Ls174T, and LoVo), and on CEACAM5-expressing pancreatic adenocarcinoma cells (HPAF-II).
Cells were harvested, counted, checked for viability and resuspended at 3×10⁶ cells/ml in FACS buffer (PBS 2% BSA, 0.1% NaN3). 100 μl of the cell suspension was distributed in V-bottom 96-well plates (3×10⁵ cells/well). The supernatant was removed by centrifugation 3 minutes at 4° C., 1300 rpm. Increasing concentrations of the antibody according to the invention were then added into the wells and incubated for 15 minutes at 4° C. Cells were washed twice with cold FACS buffer and re-incubated for further 15 minutes at 4° C. with the PE (R-phycoerythrin)-conjugated mouse anti-human IgG Fc secondary antibody (SouthernBiotech, pre-diluted 1:100 in FACS buffer). Cells were washed twice with cold FACS buffer and resuspended in 300 μl FACS buffer with 1:15000-diluted SytoxBlue (Life Technologies). Fluorescence, specifically mean fluorescence […] (MFI), was determined using a Cytoflex […] flow cytometer. Binding curves and […] and Emax values were obtained and calculated using GraphPad Prism7 software.

- Kd [1]: 360 nM
- Kd [2]: 2.63 nM
- EC50 [3]: 12 nM
- Emax (MFI) [3]: 1e+06 MFI
B1: K2AC84 (bispecific antibody, human IgG1, kappa, lambda)
heavy: not shown
light 1: QSVLTQPPSVSAAPGQKVTISCSGSSSNIGIGLVSWYQQLPGTAPKLLIYNVNTRPSGIPDRFSGSKSGTSATLGITGLQTGDEADYYCGTWDFSYRVDFGGGTKLTVLGQPKAAPSVTLFPPSSEELQANKATLVCLISDFYPGAVTVAWKADSSPVKAGVETTTPSKQSNNKYAASSYLSLTPEQWKSHRSYSCQVTHEGSTVEKTVAPTECS
light 2: not shown
notes: Kappa-lambda body; also called CD47xCEACAM5 bispecific antibody K2AC84; AC84 (CEACAM5 arm)

- Kd [1]: 10000 nM
- Kd [2]: 120 nM
- EC50 [3]: 24 nM
- Emax (MFI) [3]: 520000 MFI
B2: K2AC22 (bispecific antibody, human IgG1, kappa, lambda)
heavy: not shown
light 1: B1 light 1 with G30A, I31N, L33I, N51F, V52D, T54L, R97G, V98I, D99V
light 2: not shown
notes: Kappa-lambda body, human IgG1, one arm for CEACAM5 and one for CD47; comparison antibody from WO2019234576; also called state of the art bispecific CEAxCD47 antibody K2AC22; CD47xCEACAM5 bispecific antibody K2AC22

- Kd [1]: 700 nM
- Kd [2]: 4.8 nM
- EC50 [3]: 14.7 nM
- Emax (MFI) [3]: 900000 MFI
B3: K2AC100 (bispecific antibody, human IgG1, kappa, lambda)
heavy: not shown
light 1: B1 light 1 with I31Y, V52G, T54I
light 2: not shown
notes: Kappa-lambda body; also called CD47xCEACAM5 bispecific antibody K2AC100; AC100 (CEACAM5 arm)
